Source: paper PMC7498318
Read-outs that look alike come from different tables or passages of the source.

B1: Exon 4 hp (structured_RNA)
RNA: GCUGGCGACCUAUUCCCUUUGACGAUCCCUAGGUGGAGAUGGGGCAUGAGGAUCCUCCAGGGGAAUAGCUCACCACC

Assays:
Experiment in all cases: fluorescence anisotropy
[1] = target: T1, hnRNPK full-length (human/mouse (100% identical), UniProt P61978 1-463)
[2] = target: hnRNPK deltaKH3 (human/mouse (100% identical), UniProt P61978 1-337)
[3] = target: hnRNPK KH1 (human/mouse (100% identical), UniProt P61978 37-120)
[4] = target: hnRNPK KH3 (human/mouse (100% identical), UniProt P61978 379-463)
[5] = target: hnRNPK R9 to S9 (human/mouse (100% identical), UniProt P61978 1-463, R247S;R256S;R258S;R268S;R287S;R296S;R299S;R316S;R326S)
[6] = target: T1, hnRNPK full-length; remark: listed apart in the source
[7] = target: T1, hnRNPK full-length; remark: listed apart in the source

Binder | Kd [1] | Kd [2] | further results
GCAGCCCCAGCCCCAGCCCCUACCCCUGCCCCUGCCCCUGC (structured_RNA) [B motif RNA WT] | 61 ± 6 nM | 140 ± 30 nM | binding result [3]: no binding
GCGCCUCCCGGGUUCAAGCGAUUCUCCUGCCUCAGCCUCCCGA (ssRNA) [Sirloin motif] | 690 ± 20 nM | 760 ± 40 nM | 
GCCAACCUCUUCCCAUUUCCCACACUCCAACUCCCU (ssRNA) [Ucp2] | 44 ± 3 nM | 87 ± 9 nM | Kd [4]: 11100 ± 600 nM
GUCAUUUUCUCCCUUUCUGUUUUUCUUC (ssRNA) [Rab7] | 110 ± 20 nM | 360 ± 80 nM | 
GGUCCCCCGCCUCAUUCGCCCCUCUGCUCCC (ssRNA) [CDK6 3'UTR] | 450 ± 60 nM | 710 ± 50 nM | Kd [4]: 12900 ± 700 nM
GGCUCCCCCGACCUCUGUGCUCCCCUCCCCCGACCUCUGUGC (ssRNA) [MYU lncRNA] | 70 ± 7 nM | 120 ± 10 nM | 
ATATTCCCTC (ssDNA) [M5' ssDNA] | 1400 ± 200 nM |  | Kd [5]: 3000 ± 100 nM; Kd [4]: 8700 ± 1300 nM
B1 |  |  | binding result [1]: no binding
GCAGUUUCAGCCCCAGCCCCUAUUUCUGUUUCUGUUUCUGC (structured_RNA) [(2,3)] | 710 nM |  | 
GCAGCCCCAGCCCCAGCCCCUACCCCUGCCCCUGUUUCUGC (structured_RNA) [(1,2,3,4,5)] |  |  | binding result [6]: binds
GCAGCCCCAGCCCCAGCCCCUACCCCUGUUUCUGUUUCUGC (structured_RNA) [(1,2,3,4)] |  |  | binding result [6]: binds
GCAGCCCCAGCCCCAGCCCCUAUUUCUGUUUCUGUUUCUGC (structured_RNA) [(1,2,3)] |  |  | binding result [6]: binds
GCAGCCCCAGUUUCAGCCCCUAUUUCUGUUUCUGUUUCUGC (structured_RNA) [(1,3)] |  |  | binding result [7]: no binding
GCAGCCCCAGUUUCAGUUUUUAUUUCUGUUUCUGCCCCUGC (structured_RNA) [(1,6)] |  |  | binding result [7]: no binding
